According to patent publication US12296066B2, “Methods of wound healing with Serp-1 polypeptides” (ARIZONA BOARD OF REGENTS ON BEHALF OF ARIZONA STATE …, priority 2018, dated 2025):

Assays:
[1] = system: dermal collagen fibers; assay: quantitative collagen texture analysis, Masson's trichrome; assay type: in vivo, C57BL6/J mice; conditions: 15 days wound healing
Experimental: (§1) Skin tissues were collected at day 1, 4, 7 and 15 and fixed in 10% neutral-buffered formalin for at least two days before tissue processing with a Leica TP1050 and embedded in paraffin with a Leica EG1160 embedding station. Blocks were serially sectioned using a Leica RM2165 microtome (4 μm sections) and stained with hematoxylin and eosin (H&E) by standard procedure. […]
Quantitative collagen texture analysis was performed in Image)/FIJI (Schindelin, Nat. […] Local thickness of collagen bundles was determined with the plugin “LocalThickness 4.0.2” using the methods described by Saito and Toriwaki (Saito, Pattern Recognit. 27 (1994) 1551-1565. doi:10.1016/0031-3203(94)90133-3), and by Hildebrand and Rüegsegger (Hildebrand, J. Microsc. 185 (1997) 67-75. doi:10.1046/j.1365-2818.1997.1340694.x.). Regularity of collagen bundles was determined with the plugin “Directionality” as previously reported (Sensini, Biofabrication. 9 (2017) 015025. doi:10.1088/1758-5090/aa6204).
During wound healing, collagen accumulation and organization are correlated with scar formation. […] Local scar thickness (FIG. 7C) and directionality (FIG. 7D) of collagen in scars were analyzed using ImageJ after Masson's trichrome staining under microscopic examination (20× magnification).

[2] = system: CD31-positive vessels; assay: CD31 immunohistochemistry of peri-wound vascularization; assay type: in vivo, C57BL6/J mice
Excerpt: as §1
(§2) Slides were imaged on an Olympus BX51 upright microscope equipped with an Olympus DP74 high-resolution camera operated by cellSens Dimensions v1.16. Images were collected as objective-calibrated TIFFs and subsequently analyzed and processed in Image)/FIJI (Schindelin et al., Nat. […] Positively stained cells were counted per high power field for each treatment group.
The blood vessels were analyzed by immunohistochemistry with antibodies against the endothelial marker CD31 (also called PECAM-1), a marker for endothelial cells commonly used to indicate wound bed blood vessels (Vanchinathan et al., Am. J. Clin. Pathol. (2015). doi:10.1309/AJCPRHM8CZH5EMFD). The number of positive staining vessels in different optical fields was quantified from four pairs of saline- and Serp-1-treated wounds. […]

[3] = system: collagen bundles (Type 3 / Type 1); assay: Herovici's staining of collagen maturation in healed wounds; assay type: in vivo, C57BL6/J mice
Excerpt: (§3) Skin tissues were collected at day 1, 4, 7 and 15 and fixed in 10% neutral-buffered formalin for at least two days before tissue processing with a Leica TP1050 and embedded in paraffin with a Leica EG1160 embedding station. Blocks were serially sectioned using a Leica RM2165 microtome (4 μm sections) and stained with hematoxylin and eosin (H&E) by standard procedure. Sections were additionally stained by immunohistochemistry (IHC) for CD31 (Abcam, #ab28364, 1:100), Ly6G (Invitrogen, #14-5931-82, 1:100), and arginase-1 (Cell Signaling, #93668, 1:200), and with Masson's trichrome (Masson, J Tech Methods. 12 (1929) 75-90) and Herovici's polychrome (Herovici, Stain Technol. 38 (1963) 204-6, Levame and Meyer, Pathol. Biol. (Paris). 35 (1987) 1183-8) as special stains for collagen.
Collagens play a crucial role in angiogenesis during tissue regeneration. It is well known that collagen I a central factor allowing for endothelial cells to initiate precapillary cord formation. In contrast increased deposition of collagen III reduces the density of blood vessels at sites of wound healing (Davis, Circ. Res. (2005). doi:10.1161/01.RES.0000191547.64391.e3, O'Rourke, Adv. Wound Care. (2018). doi:10.1089/wound.2018.0827). […]

[4] = system: full thickness dorsal skin wound; assay: full-thickness splinted excisional wound healing model, planimetric wound closure; assay type: in vivo, C57BL6/J mice
Excerpt: The mouse dermal wound healing splinted model was used for these studies where the contraction is held by a donut-shaped splint remains the most widely accepted and extensively used model to study skin wound healing in mice (Galiano et al., Wound Repair Regen. 12 (2004) 485-492. doi:10.1111/j.1067-1927.2004.12404.x, Wang et al., Nat. Protoc. 8 (2013) 302-309. doi:10.1038/nprot.2013.002, Dunn et al., J. Vis. Exp. (2013) 1-6. doi:10.3791/50265).
Mice (N=29 mice) were anesthetized by intraperitoneal injection of a cocktail of 120 mg/kg ketamine and 6 mg/kg xylazine, 0.1 ml/25 g bodyweight and prepped by shaving an area of approximately 1×1 inch spanning from between the ears to the peak of the spine, centered between each shoulder. The shaved area was sterilized by two washes with 2% chlorhexidine gluconate solution (Dyna-Hex 2®, Xttrium Laboratories) and 70% ethanol using cotton swabs.
A 3.5 mm punch biopsy was performed centered in the shaved area to create the full-thickness wound excision. Treatment or control as saline solution or chitosan-collagen hydrogel preparation were applied to the wound using a hand-held micropipette. In brief, 13 mice were given saline inoculation at the time of injury, 6 mice were given Serp-1 at the time of injury at doses or 1 or 2 μg. Six mice were given 1 μg of Serp-1 and followed by second bolus at 3 days post wounding. A second group of 6 mice were given Serp-1/chitosan treatment applied at the time of injury and 6 mice were given chitosan gel alone.
A donut-shaped silicon splint (O.D. 15 mm; I.D. 5.0 mm; Culture-Well™ Grace Biolabs) with Tegaderm™ (3M Company) affixed to one side was coated with cyanoacrylate glue (Krazy Glue®) on the opposite side and carefully placed on the back of the mouse with the biopsy site centered within the inner hole. Six interrupted sutures (4-0 black Ethilon monofilament with a FS-2 reverse cutting needle; Ethicon, Inc.) were placed around the outer edge of the splint to complete the procedure. Mice were allowed to recover and returned to single-housed cages for the remainder of the trial.
On the day of the procedure (Day 0) and on every subsequent day of follow-up, for a total of 15 days, mice were collected and wounds assessed while awake. Digital images were collected using a Google Pixel model 1 or 3XL smartphone camera. Planimetric measurements of wound healing progress was performed in Image)/FIJI and calibrated to known pixel-to-size measurements (Schindelin et al., Nat. Methods. 9 (2012) 676-682. doi:10.1038/nmeth.2019).
Serp-1 has proven to be an effective modulator of coagulation pathways and immune responses in numerous animal models of vascular injury and transplant. […] In this study, the efficacy of topical Serp-1 application was tested in a full-thickness excisional model of wound healing (FIG. 2A). A 3.5 mm biopsy punch was used to create a full thickness dorsal skin wound in C57BL6/J wildtype mice. Wounds were produced through the entirety of the dermis without puncturing the panniculus carnosus. In an initial analysis, Serp-1 was applied in saline solution and compared to control saline solution alone, given directly to the wound bed. A silicone splint with a gas-permeable Tegaderm layer was sutured over the bed. The silicone splint prevented wound contraction, allowing direct visualization and photography of wound re-epithelialization during the course of a 15-day healing period (FIG. 2B).

[5] = intravenous bolus injections, patients with unstable angina; cited from earlier work
[6] = system: Ly6G positive cells; assay: Ly6G immunohistochemistry, neutrophil infiltration in wounds; assay type: in vivo, C57BL6/J mice; conditions: day 4; p=0.110
Excerpt: as §3
Slides were imaged on an Olympus BX51 upright microscope equipped with an Olympus DP74 high-resolution camera operated by cellSens Dimensions v1.16. Images were collected as objective-calibrated TIFFs and subsequently analyzed and processed in Image)/FIJI (Schindelin et al., Nat. Methods. 9 (2012) 676-682. doi:10.1038/nmeth.2019). Positively stained cells were counted per high power field for each treatment group.
Therefor neutrophil infiltration was analyzed at sites of wound healing with and without treatment with Serp-1 at day 4 by immunohistochemistry with antibodies against Ly6G (FIG. 6A).

[7] = system: Arg-1 positive macrophages; assay: Arginase-1 immunohistochemistry, M2 macrophage differentiation in wounds; assay type: in vivo, C57BL6/J mice
Excerpt: as §1, §2
Additionally the differentiation of M2 macrophages was =analyzed (FIG. 6C), during wound-healing (Kotwal and Chien, Macrophage differentiation in normal and accelerated wound healing, in: Results Probl. Cell Differ., 2017. doi:10.1007/978-3-319-54090-0_14), by IHC with antibodies against Arginase-1 (EC3.5.3.1). […]

B1: Serp-1: Recombinant Serp-1 (m008.1L), secreted Myxomavirus glycoprotein serpin, expressed in CHO cells; SEQ ID NO: 1 (protein, listed as Homo sapiens)
chain: MKYLVLVLCLTSCACRDIGLWTFRYVYNESDNVVFSPYGLTSALSVLRIAAGGNTKREIDVPESVVEDSDAFLALRELFVDASVPLRPEFTAEFSSRFNTSVQRVTFNSENVKDVINSYVKDKTGGDVPRVLDASLDRDTKMLLLSSVRMKTSWRHVFDPSFTTDQPFYSGNVTYKVRMMNKIDTLKTETFTLRNVGYSVTELPYKRRQTAMLLVVPDDLGEIVRALDLSLVRFWIRNMRKDVCQVVMPKFSVESVLDLRDALQRLGVRDAFDPSRADFGQASPSNDLYVTKVLQTSKIEADERGTTASSDTAITLIPRNALTAIVANKPFMFLIYHKPTTTVLFMGTIT
[1]
  collagen bundle thickness: increased bundle thickness
  collagen directionality: more organized directionality
[2]; day 7, peri-wound area, saline control 10.0±2.5
  number of vessels each image (CD31-positive): 36.3±4.9
[2]; day 7, versus saline alone
  appearance of CD31-positive vessels: appreciably more “mature” CD31-positive vessels, with increased length and thickness
[3]; Herovici's stain, FIG. 8
  ratio of collagen types in treated wound: increasing the ratio of collagen III to collagen I
[3]; day 15, versus saline-treated wounds
  collagen maturation by Herovici's stain: greater degree of maturation
[4]; 1.0 μg Serp-1, in the first week
  wound closure earlier compared to saline group: four
[4]; 1.0 μg/wound at day 0 and day 3, day 5
  wound closure: 40%
[4]; 1.0 μg/wound/mouse, single dose, mean
  days less to achieve same degree of closure as control group at day 7 (or 2.0 μg at day 5): 3 days
[4]; 2.0 μg Serp-1, day 5
  wound closure: greater than 20%
[4]; 2.0 μg Serp-1, day 7
  wound closure: 47%
[4]; 2 μg/mouse, single topical dose day 0, p<0.0001
  wound healing accelerated by: approximately 3 days
[4]; Serp-1 [1+1]: 1 μg/mouse on Days 0 and 3 (FIG. 2C)
  day of healing equivalent to saline alone on Day 7: 3 days
[4]; mouse model, conclusion
  faster closure rate: 40%
  scarring: reduction in scarring
[4]; repeated treatment group (1.0 μg day 0 + day 3), 15 days of observation
  completeness of closure: more completely closure than other groups
[4]; single dose treatment groups, day 5
  wound closure: 30%
[4]; topical, doses of between 1 microgram and 2 micrograms, punch wounds on mouse back
  time to wound closure accelerated by, compared to saline: 2 to 5 days
[5]
  safety: proved safe
[6]
  Ly6G positive cells in healing tissues: non significant trend toward an increase
[7]; day 4, compared to control wounds
  density of Arg-1 positive macrophages: significantly increased density
[7]; day 7, compared to untreated wounds
  density of Arg-1 positive (M2) macrophages: significant higher
